Data: article doi:10.1101/2023.06.21.545551, “Intrinsically disordered regions in the transcription factor MYC:MAX modulate DNA binding via intramolecular interactions”

Legend:
[1] = biological target: MYC(1-439)_C0,C25;MAX(2-160) (human?;human?, UniProt P01106-1;P61244 ;, C70A;C117A;C133A;C171A;C188A;C208A;C300A;C342A;C438A|); assay: NMR; 13C-MTC on C25; 10-fold DNA; SPR: 25 mM HEPES pH 8, 150 mM NaCl, 1 mM TCEP, 0.01% Tween-20, 3 mM EDTA, temperature not stated; NMR: 20 mM HEPES pH 7, 100 mM NaCl (E100; or E300), 2 mM TCEP, 5% D2O, 298 K (complexes) or 283 K (disordered fragments); details: protein: recombinant;recombinant; tags: 13C-MTC label on C25;N-Strep-TEV, cleavable; copies: 1;1; blunt
MYC(256-299) = MYC(256-299) (UniProt P01106-1); assay: NMR; SPR: 25 mM HEPES pH 8, 150 mM NaCl, 1 mM TCEP, 0.01% Tween-20, 3 mM EDTA, temperature not stated; NMR: 20 mM HEPES pH 7, 100 mM NaCl (E100; or E300), 2 mM TCEP, 5% D2O, 298 K (complexes) or 283 K (disordered fragments); details: protein: recombinant; tags: His6-ZZ-TEV cleaved; 15N; blunt
Mb0 peptide MYC(11-34) = Mb0 peptide MYC(11-34) (UniProt P01106-1); assay: NMR; equimolar DNA; SPR: 25 mM HEPES pH 8, 150 mM NaCl, 1 mM TCEP, 0.01% Tween-20, 3 mM EDTA, temperature not stated; NMR: 20 mM HEPES pH 7, 100 mM NaCl (E100; or E300), 2 mM TCEP, 5% D2O, 298 K (complexes) or 283 K (disordered fragments); details: protein: recombinant; tags: His6-MBP-TEV cleaved; 13C-MTC on C25; blunt
[2] = biological target: T1, MYC(151-439);MAX(2-160) of commercial complex (human?;human?, UniProt P01106-1;P61244 ;, |); assay: SPR; negative control bound only by MYC(352-437):MAX; SPR: 25 mM HEPES pH 8, 150 mM NaCl, 1 mM TCEP, 0.01% Tween-20, 3 mM EDTA, temperature not stated; NMR: 20 mM HEPES pH 7, 100 mM NaCl (E100; or E300), 2 mM TCEP, 5% D2O, 298 K (complexes) or 283 K (disordered fragments); details: protein: commercial;commercial; copies: 1;1; label: 5'-biotin on strand 1; blunt
[3] = biological target: T2, MYC(2-439) full-length;MAX(2-160) (human?;human?, UniProt P01106-1;P61244 ;, |); assay: as above; details: protein: recombinant;recombinant; tags: none;N-Strep-TEV, cleavable; copies: 1;1; label: 5'-biotin on strand 1; blunt
[4] = biological target: T2, MYC(2-439) full-length;MAX(2-160); assay: SPR; range over canonical and mutant E-Boxes; SPR: 25 mM HEPES pH 8, 150 mM NaCl, 1 mM TCEP, 0.01% Tween-20, 3 mM EDTA, temperature not stated; NMR: 20 mM HEPES pH 7, 100 mM NaCl (E100; or E300), 2 mM TCEP, 5% D2O, 298 K (complexes) or 283 K (disordered fragments); details: protein: recombinant;recombinant; tags: none;N-Strep-TEV, cleavable; copies: 1;1; label: 5'-biotin on strand 1; blunt
[5] = biological target: MYC(352-437);MAX(2-160) co-expressed (human?;human?, UniProt P01106-1;P61244 ;, |); assay: SPR; strongest of the four DNAs; Kd only in figure; SPR: 25 mM HEPES pH 8, 150 mM NaCl, 1 mM TCEP, 0.01% Tween-20, 3 mM EDTA, temperature not stated; NMR: 20 mM HEPES pH 7, 100 mM NaCl (E100; or E300), 2 mM TCEP, 5% D2O, 298 K (complexes) or 283 K (disordered fragments); details: protein: recombinant;recombinant; tags: N-His6 uncleavable;none; copies: 1;1; label: 5'-biotin on strand 1; blunt
[6] = biological target: T1, MYC(151-439);MAX(2-160) of commercial …; assay: SPR; affinity between P3+P6 and full length; SPR: 25 mM HEPES pH 8, 150 mM NaCl, 1 mM TCEP, 0.01% Tween-20, 3 mM EDTA, temperature not stated; NMR: 20 mM HEPES pH 7, 100 mM NaCl (E100; or E300), 2 mM TCEP, 5% D2O, 298 K (complexes) or 283 K (disordered fragments); details: protein: commercial;commercial; copies: 1;1; label: 5'-biotin on strand 1; blunt

T2 sequence (P01106 17-454, chain 1 of 2): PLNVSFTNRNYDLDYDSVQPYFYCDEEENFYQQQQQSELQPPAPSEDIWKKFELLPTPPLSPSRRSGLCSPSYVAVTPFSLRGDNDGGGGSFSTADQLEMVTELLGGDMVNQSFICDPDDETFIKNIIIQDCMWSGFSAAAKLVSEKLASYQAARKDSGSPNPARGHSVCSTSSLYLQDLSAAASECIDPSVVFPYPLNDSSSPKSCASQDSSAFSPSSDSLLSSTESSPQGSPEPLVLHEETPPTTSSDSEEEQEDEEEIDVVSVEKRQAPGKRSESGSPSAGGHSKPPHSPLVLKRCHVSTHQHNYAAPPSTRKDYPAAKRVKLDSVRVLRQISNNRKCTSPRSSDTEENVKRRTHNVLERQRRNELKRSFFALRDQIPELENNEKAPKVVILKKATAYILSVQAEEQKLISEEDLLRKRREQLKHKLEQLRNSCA
T2 sequence (P61244 other isoform, or with tags, fused parts or gaps |, chain 2 of 2): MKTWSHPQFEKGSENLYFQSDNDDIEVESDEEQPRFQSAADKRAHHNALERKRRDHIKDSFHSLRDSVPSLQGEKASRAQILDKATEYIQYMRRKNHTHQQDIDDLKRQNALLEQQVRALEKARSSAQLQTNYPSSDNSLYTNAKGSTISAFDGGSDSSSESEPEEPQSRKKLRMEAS
T1 sequence (P01106 166-454, chain 1 of 2): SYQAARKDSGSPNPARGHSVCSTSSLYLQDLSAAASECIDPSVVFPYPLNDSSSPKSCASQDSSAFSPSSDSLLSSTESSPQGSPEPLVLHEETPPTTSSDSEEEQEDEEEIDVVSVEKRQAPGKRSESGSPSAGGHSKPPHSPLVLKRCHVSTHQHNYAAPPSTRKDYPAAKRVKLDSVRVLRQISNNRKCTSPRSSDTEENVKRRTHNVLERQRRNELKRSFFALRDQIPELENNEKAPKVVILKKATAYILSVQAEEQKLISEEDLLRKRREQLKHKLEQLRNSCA
T1 sequence (P61244 other isoform, or with tags, fused parts or gaps |, chain 2 of 2): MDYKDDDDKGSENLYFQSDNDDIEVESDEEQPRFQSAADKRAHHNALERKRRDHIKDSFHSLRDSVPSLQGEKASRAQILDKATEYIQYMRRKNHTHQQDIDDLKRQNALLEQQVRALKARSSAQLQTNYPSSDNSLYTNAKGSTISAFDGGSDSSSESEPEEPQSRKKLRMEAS
Chain of Mb0 peptide MYC(11-34) (P01106 other isoform, or with tags, fused parts or gaps): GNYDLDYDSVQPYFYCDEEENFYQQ
Chain of MYC(352-437);MAX(2-160) co-expressed (P01106 other isoform, or with tags, fused parts or gaps |, chain 1 of 2): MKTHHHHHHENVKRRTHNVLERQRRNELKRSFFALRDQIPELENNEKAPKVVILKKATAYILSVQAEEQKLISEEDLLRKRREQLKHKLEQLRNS
Chain of MYC(352-437);MAX(2-160) co-expressed (P61244 whole entry, chain 2 of 2, the tested form may be a part): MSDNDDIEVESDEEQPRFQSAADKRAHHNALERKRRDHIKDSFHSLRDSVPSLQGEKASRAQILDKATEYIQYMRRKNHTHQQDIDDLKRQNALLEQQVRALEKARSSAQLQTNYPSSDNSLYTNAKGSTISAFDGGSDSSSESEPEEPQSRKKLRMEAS
Chain of MYC(1-439)_C0,C25;MAX(2-160) (P01106 other isoform, or with tags, fused parts or gaps C70A;C117A;C133A;C171A;C188A;C208A;C300A;C342A;C438A|, chain 1 of 2): as the sequence (P01106 17-454, chain 1 of 2) above, with C24A, C69A, C116A, C132A, C170A, C187A, C207A, C299A, C341A, C437A counted along it
Chain of MYC(256-299) (P01106 other isoform, or with tags, fused parts or gaps): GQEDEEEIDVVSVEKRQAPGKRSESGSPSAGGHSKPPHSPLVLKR

B1: E-Box (NMR) (dsDNA)
DNA 1: CCGGTCACGTGGCCTA
DNA 2: TAGGCCACGTGACCGG
binding result [1]: binds
binding result (MYC(256-299)): no binding
binding result (Mb0 peptide MYC(11-34)): no binding

B2: Negative control (dsDNA)
DNA 1: CCGGTTTAGCAGCCTA
DNA 2: TAGGCTGCTAAACCGG
binding result [2]: no binding
binding result [3]: no binding

B3: E-Box (SPR) (dsDNA)
DNA 1: CCGGTCACGTGGCCTA
DNA 2: TAGGCCACGTGACCGG
binding result [4]: binds
binding result [5]: binds
binding result [6]: binds
